{"source": "patent US7052908B2", "about": "“Androgen receptor coactivators” (University of Rochester, priority 1998, dated 2006)", "molecules": {"B1": {"name": "ARA54: 54 kDa androgen receptor coactivator, 474 aa, SEQ ID NO:2, expressed by transfection (protein)", "chain": "MSSEDREAQEDELLALASIYDGDEFRKAESVQGGETRIYLDLPQNFKIFVSGNSNECLQNSGFEYTICFLPPLVLNFELPPDYPSSSPPSFTLSGKWLSPTQLSALCKHLDNLWEEHRGSVVLFAWMQFLKEETLAYLNIVSPFELKIGSQKKVQRRTAQASPNTELDFGGAAGSDVDQEEIVDERAVQDVESLSNLIQEILDFDQAQQIKCFNSKLFLCSICFCEKLGSECMYFLECRHVYCKACLKDYFEIQIRDGQVQCLNCPEPKCPSVATPGQVKELVEAELFARYDRLLLQSSLDLMADVVYCPRPCCQLPVMQEPGCTMGICSSCNFAFCTLCRLTYHGVSPCKVTAEKLMDLRNEYLQADEANKRLLDQRYGKRVIQKALEEMESKEWLEKNSKSCPCCGTPIEKLDGCNKMTCTGCMQYFCWICMGSLSRANPYKHFNDPGSPCFNRLFYAVDVDDDIWEDEVED", "modifications": "Homo sapien"}}, "key": {"mARt877s": {"test_system": "mARt877s", "test": "AR transactivation, transient transfection CAT reporter assay, mutant AR", "format": "cell-based, human"}, "AR [1]": {"test_system": "AR", "test": "Mammalian two-hybrid assay with CAT reporter in DU145 cells", "format": "cell-based, human", "from_the_text": "The mammalian two-hybrid system employed was essentially the protocol of Clontech (California), with the following modifications. […] The hinge and LBD of wtAR were then inserted into pGAL0. Similarly, the VP16 activation domain was fused to pCMX under the control of a CMV promoter, and designated pCMX-VP16 (provided by Dr. R. M. Evan)."}, "wtAR": {"target": "T1, wtAR (Homo sapiens, UniProt P10275)", "T1 sequence (P10275 1-920)": "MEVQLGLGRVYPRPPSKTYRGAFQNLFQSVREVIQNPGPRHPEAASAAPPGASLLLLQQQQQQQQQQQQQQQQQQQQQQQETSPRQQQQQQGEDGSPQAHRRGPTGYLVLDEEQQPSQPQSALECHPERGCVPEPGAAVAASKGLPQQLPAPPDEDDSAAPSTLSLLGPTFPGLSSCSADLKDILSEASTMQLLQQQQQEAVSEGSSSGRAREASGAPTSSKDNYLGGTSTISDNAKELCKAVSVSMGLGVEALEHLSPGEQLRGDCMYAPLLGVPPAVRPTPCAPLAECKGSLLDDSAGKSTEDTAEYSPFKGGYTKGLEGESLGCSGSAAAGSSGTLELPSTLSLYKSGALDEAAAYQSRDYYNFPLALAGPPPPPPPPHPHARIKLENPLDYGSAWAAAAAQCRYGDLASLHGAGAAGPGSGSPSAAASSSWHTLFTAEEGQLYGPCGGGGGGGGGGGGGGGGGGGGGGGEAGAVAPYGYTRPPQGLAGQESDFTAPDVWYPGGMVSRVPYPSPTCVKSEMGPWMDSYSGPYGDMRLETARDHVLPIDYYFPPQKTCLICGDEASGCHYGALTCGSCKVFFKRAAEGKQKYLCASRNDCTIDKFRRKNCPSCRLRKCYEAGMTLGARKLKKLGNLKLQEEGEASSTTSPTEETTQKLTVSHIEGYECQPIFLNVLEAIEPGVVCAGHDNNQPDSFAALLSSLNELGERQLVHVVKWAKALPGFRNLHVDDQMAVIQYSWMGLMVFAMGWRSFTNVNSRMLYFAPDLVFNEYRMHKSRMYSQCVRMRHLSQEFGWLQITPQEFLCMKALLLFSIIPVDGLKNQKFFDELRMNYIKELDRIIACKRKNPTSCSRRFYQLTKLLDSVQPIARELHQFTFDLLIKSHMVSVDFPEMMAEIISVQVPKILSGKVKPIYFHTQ", "test": "AR transactivation, transient transfection with MMTV-CAT reporter in DU145 cells", "settings": "for AR transcriptional activity induction with cotransfected coactivator: wild type AR, 1 nM DHT, DU145, from 5-fold without coactivator"}, "ARA55 mRNA": {"test_system": "ARA55 mRNA", "test": "Northern blot of ARA55 mRNA in PC3 cells", "format": "cell-based, human", "settings": "TGFβ 5 ng/ml", "method": "The total RNA (25 μg) was fractionated on a 1% formaldehyde-MOPS agarose gel, transferred onto a Hybond-N nylon membrane (Amersham) and prehybridized. A probe corresponding to the 900 bp C-terminus of ARA55 or an ARA54-specific sequence was ^32P-labeled in vitro using Random Primed DNA Labeling Kit (Boehringer-Mannheim) according to the manufacture's protocol and hybridized overnight. After washing, the blot was exposed and quantified by Molecular Dynamics PhosphorImager. β-actin was used to monitor the amount of total RNA in each lane."}, "AR [2]": {"target": "T2, AR (Homo sapiens, UniProt P10275)", "T2 sequence (P10275 1-920)": "T1 sequence (P10275 1-920)", "test": "AR transcriptional activity (MMTV-CAT) in PC3 cells", "settings": "TGFβ treatment"}, "[3]": {"target": "T3, progesterone receptor (PR) (Homo sapiens, UniProt P06401)", "T3 construct": "expressed in transfected cells; host or cells: DU145", "T3 sequence (P06401 1-933)": "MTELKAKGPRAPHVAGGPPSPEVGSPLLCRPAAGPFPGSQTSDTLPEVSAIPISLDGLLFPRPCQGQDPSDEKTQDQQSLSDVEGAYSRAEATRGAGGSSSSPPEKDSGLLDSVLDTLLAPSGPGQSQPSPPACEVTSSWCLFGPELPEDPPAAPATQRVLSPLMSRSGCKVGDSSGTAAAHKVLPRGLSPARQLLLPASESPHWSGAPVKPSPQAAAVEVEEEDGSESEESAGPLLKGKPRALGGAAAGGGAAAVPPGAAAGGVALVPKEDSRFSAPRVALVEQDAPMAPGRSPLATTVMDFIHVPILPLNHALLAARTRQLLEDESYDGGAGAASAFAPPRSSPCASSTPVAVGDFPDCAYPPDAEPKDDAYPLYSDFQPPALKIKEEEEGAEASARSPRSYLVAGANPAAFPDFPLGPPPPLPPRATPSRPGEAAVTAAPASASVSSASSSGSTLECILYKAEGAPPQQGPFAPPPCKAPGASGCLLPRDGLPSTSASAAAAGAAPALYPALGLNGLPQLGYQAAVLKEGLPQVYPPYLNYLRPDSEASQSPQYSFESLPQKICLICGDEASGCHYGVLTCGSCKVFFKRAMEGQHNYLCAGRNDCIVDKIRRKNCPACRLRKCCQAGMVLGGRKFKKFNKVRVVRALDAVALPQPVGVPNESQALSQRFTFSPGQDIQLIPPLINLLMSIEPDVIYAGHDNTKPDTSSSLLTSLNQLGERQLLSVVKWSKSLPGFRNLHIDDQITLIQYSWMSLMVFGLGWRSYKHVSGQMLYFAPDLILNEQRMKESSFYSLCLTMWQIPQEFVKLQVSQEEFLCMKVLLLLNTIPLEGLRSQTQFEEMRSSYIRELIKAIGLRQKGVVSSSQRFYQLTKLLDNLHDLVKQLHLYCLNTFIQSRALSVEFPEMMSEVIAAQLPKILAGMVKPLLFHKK", "test": "Steroid receptor transactivation, MMTV-CAT reporter in DU145 cells", "format": "cell-based", "settings": "DU145 cells, cognate ligand"}, "[4]": {"target": "T4, glucocorticoid receptor (GR) (Homo sapiens, UniProt P04150)", "T4 construct": "expressed in transfected cells; host or cells: DU145", "T4 sequence (P04150 1-777)": "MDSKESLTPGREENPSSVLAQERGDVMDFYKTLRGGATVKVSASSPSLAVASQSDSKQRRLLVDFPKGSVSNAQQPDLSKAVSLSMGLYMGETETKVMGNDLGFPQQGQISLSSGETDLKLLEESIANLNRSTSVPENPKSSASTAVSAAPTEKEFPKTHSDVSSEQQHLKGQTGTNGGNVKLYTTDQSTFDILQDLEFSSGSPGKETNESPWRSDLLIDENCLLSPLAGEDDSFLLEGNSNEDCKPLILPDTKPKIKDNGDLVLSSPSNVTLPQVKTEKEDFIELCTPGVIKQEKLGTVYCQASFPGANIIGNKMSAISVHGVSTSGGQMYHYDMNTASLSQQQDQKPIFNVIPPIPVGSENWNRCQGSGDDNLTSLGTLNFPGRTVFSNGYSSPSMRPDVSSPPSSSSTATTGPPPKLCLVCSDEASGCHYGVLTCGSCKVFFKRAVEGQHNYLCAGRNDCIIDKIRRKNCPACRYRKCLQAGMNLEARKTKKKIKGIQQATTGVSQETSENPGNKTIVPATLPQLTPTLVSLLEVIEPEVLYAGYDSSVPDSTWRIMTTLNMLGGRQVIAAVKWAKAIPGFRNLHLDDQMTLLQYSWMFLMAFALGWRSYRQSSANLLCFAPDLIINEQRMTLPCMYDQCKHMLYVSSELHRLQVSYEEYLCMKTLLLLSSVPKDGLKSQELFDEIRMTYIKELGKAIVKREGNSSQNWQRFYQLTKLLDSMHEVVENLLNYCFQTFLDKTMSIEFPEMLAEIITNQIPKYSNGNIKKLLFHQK", "test": "Steroid receptor transactivation, MMTV-CAT reporter in DU145 cells", "format": "cell-based", "settings": "DU145 cells"}, "estrogen receptor (ER)": {"target": "T5, estrogen receptor (ER) (Homo sapiens, UniProt P03372)", "T5 construct": "expressed in transfected cells; host or cells: DU145", "T5 sequence (P03372 1-595)": "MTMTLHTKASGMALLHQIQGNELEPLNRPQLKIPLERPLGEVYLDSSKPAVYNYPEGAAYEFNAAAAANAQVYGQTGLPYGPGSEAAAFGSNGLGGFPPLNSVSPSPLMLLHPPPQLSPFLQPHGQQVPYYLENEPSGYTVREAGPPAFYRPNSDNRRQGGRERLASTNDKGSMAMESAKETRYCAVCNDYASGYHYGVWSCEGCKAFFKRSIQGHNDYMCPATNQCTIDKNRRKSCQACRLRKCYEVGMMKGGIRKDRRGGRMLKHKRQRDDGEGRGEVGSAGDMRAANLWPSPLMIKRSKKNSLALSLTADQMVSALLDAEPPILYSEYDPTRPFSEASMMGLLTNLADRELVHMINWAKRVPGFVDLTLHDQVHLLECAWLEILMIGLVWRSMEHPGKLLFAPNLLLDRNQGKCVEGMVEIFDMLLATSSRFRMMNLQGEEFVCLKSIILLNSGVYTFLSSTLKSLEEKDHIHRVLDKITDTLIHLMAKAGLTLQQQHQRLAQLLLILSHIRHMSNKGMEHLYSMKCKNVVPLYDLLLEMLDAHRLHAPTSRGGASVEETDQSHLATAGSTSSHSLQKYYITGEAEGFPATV", "test": "Steroid receptor transactivation, ERE-CAT reporter in DU145 cells", "format": "cell-based", "settings": "DU145 cells"}}, "data": [{"molecule": "C[C@]12CC[C@@H]3c4ccc(O)cc4CC[C@H]3[C@@H]1CC[C@@H]2O", "note": "[E2, 17 β estradiol]", "values": [{"measurement": "response of Art877a transactivation to ligand", "setting": "mARt877s; absence of ARA54, E2 10^-9-10^-7 M, HF 10^-7-10^-5 M", "result": "responded"}, {"measurement": "response of LNCaP mAR to ligand compared to wtAR", "setting": "mARt877s; compared to wtAR", "result": "responded much better"}]}, {"molecule": "Rb: retinoblastoma protein, SEQ ID NO:8, expressed by transfection as AR coactivator", "values": [{"measurement": "induced CAT activity in mammalian two-hybrid assay (interaction with AR)", "setting": "AR [1]; DU145, Rb with near full length AR (aa 36-918)", "result": 3, "unit": "fold"}, {"measurement": "AR transcriptional activity induction with cotransfected coactivator", "setting": "wtAR", "result": 21, "unit": "fold"}]}, {"molecule": "TGFβ", "values": [{"measurement": "induction of ARA55 mRNA", "setting": "ARA55 mRNA", "result": 2, "unit": "fold"}, {"measurement": "increase of AR transcriptional activity", "setting": "AR [2]", "result": 70, "unit": "%"}]}, {"molecule": "ARA70: the first identified AR coactivator, used as positive control [reference compound]", "values": [{"measurement": "AR transcriptional activity induction with cotransfected coactivator", "setting": "wtAR", "result": 36, "unit": "fold"}]}, {"molecule": "B1", "values": [{"measurement": "induction of PR transcriptional activity by ARA54", "setting": "[3]", "result": "3–5 fold"}, {"measurement": "effect of ARA54 on GR transcriptional activity", "setting": "[4]", "result": "less than 2 fold"}, {"measurement": "effect of ARA54 on ER transcriptional activity", "setting": "estrogen receptor (ER)", "result": "less than 2 fold"}, {"measurement": "CAT activity on coexpression of AR with ARA54", "setting": "AR [1]; DU145, 10^-8 M DHT", "result": "significantly induced"}, {"measurement": "enhancement of wtAR transactivation by coexpressed ARA54", "setting": "wtAR; DHT 10^-10 to 10^-8 M", "result": "3–5 fold"}, {"measurement": "induction of AR transcriptional activity by ARA54", "setting": "wtAR; DU145 cells, cognate ligand", "result": "up to 6 fold"}]}]}
